This is an account of results in patent US20090180995A1 (NATIONAL UNIVERSITY OF SINGAPORE, published 2009).

The target of one test is plasma kallikrein. Kind of test: cell-based or functional assay.
A further test deals with TF-FVIIa complex (human, UniProt P08709 61-466; P13726 33-295). Put plainly: cell-based or functional assay.
A further test addresses T1, hemextin B (Hemachatus haemachatus (African …)).
T1 construct: also called peak B
T1 chain: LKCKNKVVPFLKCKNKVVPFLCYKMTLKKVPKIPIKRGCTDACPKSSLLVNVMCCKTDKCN
Kind of test: ITC in phosphate, MOPS and Tris buffers at pH 7.4.

Chain of TF-FVIIa complex (P08709 61-466 limits assumed, chain 1 of 2): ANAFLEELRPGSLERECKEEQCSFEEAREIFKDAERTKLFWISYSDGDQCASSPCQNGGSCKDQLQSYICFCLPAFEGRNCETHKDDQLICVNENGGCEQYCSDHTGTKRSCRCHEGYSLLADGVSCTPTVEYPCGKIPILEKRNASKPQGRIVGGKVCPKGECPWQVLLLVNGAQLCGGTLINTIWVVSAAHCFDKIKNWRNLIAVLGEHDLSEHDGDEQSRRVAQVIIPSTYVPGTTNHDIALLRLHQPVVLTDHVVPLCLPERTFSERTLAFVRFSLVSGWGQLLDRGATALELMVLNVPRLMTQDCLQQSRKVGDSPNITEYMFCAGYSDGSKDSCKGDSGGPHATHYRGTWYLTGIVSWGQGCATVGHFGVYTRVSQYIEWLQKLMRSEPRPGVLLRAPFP
Chain of TF-FVIIa complex (P13726 33-295 limits assumed, chain 2 of 2): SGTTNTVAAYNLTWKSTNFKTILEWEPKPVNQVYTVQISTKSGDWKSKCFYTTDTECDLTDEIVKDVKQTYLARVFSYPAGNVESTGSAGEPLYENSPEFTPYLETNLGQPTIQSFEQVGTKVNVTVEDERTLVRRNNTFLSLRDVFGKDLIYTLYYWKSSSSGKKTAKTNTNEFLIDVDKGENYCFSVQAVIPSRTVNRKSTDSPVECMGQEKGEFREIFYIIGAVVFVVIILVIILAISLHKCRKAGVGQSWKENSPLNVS

B1: hemextin AB complex (other)
chain 1: LKCKNKLVPFLSKTCPEGKNLCYKMTMLKMPKIPIKRGCTDACPKSSLLVKVVCCNKDKCN
chain 2: T1 chain
Take B1: the “IC50, inhibition of plasma kallikrein amidolytic activity” value with plasma kallikrein is about 5 µM. In the test with TF-FVIIa complex, the “IC50, inhibition of extrinsic tenase activity (FXa formation)” value stood at 0.1 µM.

B2: hemextin A (other)
chain: B1 chain 1
notes: also called peak A
For B2, the “ΔHbin (binding enthalpy corrected for protonation)” value with hemextin B was -15.2 kJ/mol.
